Data published in the nanobody polyreactivity screen of Harvey et al. (2022).

Assay: yeast display, Sf9 membrane polyspecificity reagent, FACS + sequencing; frameworks hold sequencing errors
Summary of the method: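 Synthetic nanobody libraries on Saccharomyces cerevisiae BJ5465 were galactose-induced for 36–48 hours, stained 1 hour at 4 °C with 10% biotinylated, detergent-solubilized Sf9 membrane reagent and enriched on streptavidin microbeads. FACS then separated cells into low and high (top ~1%) gates by anti-HA (expression) and streptavidin (reagent binding) fluorescence. Genes were colony-PCR amplified, MiSeq 2 × 250 sequenced and CDR-length filtered. A clone's polyreactivity label is that of its gate of origin.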

Sequence	polyreactivity (PSR sort gate)
QVQLVESGGGLVQAGGSLRLSCAASGRTLYGYPMGWYRQAPGKERELVAAISKRGTRTYYADSVKGRFTISRDNAKNTVYIQMNSLKPEDTAVYYCAARYPPDEATMVYWGQGTQVTVSS	high polyreactivity
QVQLVESGGGLVQAGGSLRLSWAASGRIFYFYAMGWYRQAPGKERELVASISSGGITNYADSVKGRFTISRDNAKNTVYLQMNSLKPEDTAVYYCNAGYASGKYSGGYLYGYWGQGTQVTVSS	low polyreactivity
QVQLVESGGGLVQAGGSLRLSCAASGFIFYSNAMGWYRQAPGKERELVAAISRRGGSTYYADSVKGRFTISRDNAKNTVYLQMNSLKPEDTAVYYCAARVVSGFDSWGQGTQVTVSS	high polyreactivity
QVQLVESGGGLVQAGGSLRLSCAASGSIFKDNAMGWYRQAPGKERELVAAITSGASTNYADSVKGRFTISRDNAKNTVYLQMNSLKPEVTAVYYCAAVLAGGVYWVVHYDYWGQGTQVTVSS	low polyreactivity
QVQLVESGGGLVQAGGSLRLSCAASGSTFDYNAMGWYRQAPGKERELVADITGSGASTSYADSVKGRFTISRDNAKNTVYLQMNSLKPEDTAVYYCAATGYSSWTYYTHEYWGQGTQVTVSS	low polyreactivity
QVQLVESGGGLVQAGGSLRLSCAASGIIFGRYPMGWYRQAPGKERELVAAITSSGITYYADSVKGRFTISRDNAKNTVYLQMNSLKPEDTAVYYCNADYSIPGYYWPYDYWGQGTQVTVSS	low polyreactivity
QVQLVESGGGLVQAGGSLRLSCAASGITFYGNAMGWYRQAPGKERELVAAISSSGGTTYYADSVKGRFTISRDNAKNTVYLQMNSLKPEDTAVYYCNALHPVVYYGTYFNLRRYDYWGQGTQVTVSS	low polyreactivity
QVQLVESGGGLVHAGGSLRLSCAASGFTIRSYVMGWYRQAPGKERELVAAIRRSGGSTYYADSVKGRFTISRDNAKNTVYLQMNCLKPEDTAVYYCNADIRAYTVLTGGYIYDYWGQGTQVTVSS	high polyreactivity
QVQLVESGGGLVQAGGSLRLSCAASGRTFKSYAMGWYRQAPGKERELVAAISRSSGSTYYADSVKGRFTISRDNAKNTVYLQMNSLKPEDTAVYYCATTKRVGYNYWGQGTQVTVSS	high polyreactivity
QVQLVESVGGLVQAGGSLRLSCSASGSIFWYNAMGWYRQAPGKERELVAAISRGGSTKYADSVKGRFTISRDNAKNTVYLQMNSLKPEDTAVYYCAARYYRSSQGWTYDYWGKGTQVTVSS	low polyreactivity
QVQLVESGGRLVQAGGRLRLICAASGFIFSDYAMGWYRQAPGKERELVAAISWRGGSTYYADSVKGRFTISRDKEKNSVYLQMNSLKPEDTAVYYCAADYGAYDMDYWGQGTQVTVSS	high polyreactivity
QVHLVESGGVLVQAGGSLRLSCAASGSIFAKYAMGWYRQAPGKERELVAAISRSSVRTRYADSVKGRFTISRDNAKNTVYLQMNSLKPADTAVYYCNAYYRSYAYSHLDYWGQGTQVTVSS	high polyreactivity
QVQLVESGGGLVQAGGSLRLSCAASGFIFPPYAMGWYRQAPGKERELVAAIRISGGSTYYADSVKGRFTISRDNAKNTVYLQMNSLKPEDTAVYYCAARYVSSTPAYAYYYWGQGTQVTVSS	high polyreactivity
QVQLVDSGGGLVQAGGSLSLSCAASGRTFNYKAMGWYRQAPGKERELVAAISWGGGSTFYADSVKGRFTISRDNAKNTVYLEMNSLKPEDTAVYYCAAYRQYGNRGAYYSWGQGTQVTVSS	low polyreactivity
QVQLVESGGGLVQAGGSLRLSCAASGRIFAYYVMGWYRQAPAKERELVASISSGGGTYYADSVKGRFTISRDNAKNTVYLQMNSLKPEDTAVYYCAARWLRYVYPDGHLFWYDYWGQGTQVTVSS	high polyreactivity
QVQLVESGGGLVQAGGSLRLSCAASGSIFYYYAMGWYRQAPGKERELVAAITYRGTRTYYADSVKGRFTISRDNAKNTVYLLMNSLKPEDTAVYYCAAERRIYSSDSWGQGTQVTVSS	high polyreactivity

Sequence	polyreactivity (PSR sort gate)
QVQLVESGGGLVQAGGSLRLSCAASGITFGRNTMGWYRQAPGKERELVAAIDSGGNTYADSVKGRFTISRDNAKNTVYLQMNSLKPEDTAVYYCAVDGGEFSSSGYWGQGTQVPVSS	low polyreactivity
QVQLVESGGGLVLAGGSLRLSCAASGSIFWVNAMGWYRQAPGKERELVAAINYSDGSTSYADSVKGRFTISRDIAKNTVYLQMNSLKPEDTAVYYCNAESFELMYYWGQGTQVTVSS	low polyreactivity
QVQLVESGGGVVQAGRSLRLSCAASGSPFAYNSMGWYRKAPGKERELVAAISWRGTRTYYADSVKGRFTISRDTAKNTVNLQMNSLKPEDTAVYYCATKYGISYDYWGQGTHVTVSS	high polyreactivity
QVQLVESGGGLVQAGGSLRLSCAASGITFLWNARGWYRQAPGKERELVAVISIGGSTYYADSVKGRFTISRDNAKNTVYLQMNSLKPEDTAVYYCAATEGPAYDYEYWGQGTQVTVSS	low polyreactivity
QVQLVESGGGLVQAGGSLRLSCAASGRTFRKYAMGWYRQAPGKERELVAAISWSGGSTYYANSVKGRFTISRDNAKNTVYLPMNSLKPVDTAVYYCAAVPVHTGSLYWGFTTGYDYWGQGTQVTVSS	low polyreactivity
QVQLVESGGGLVQAGGSLRLSCAASGSTFQANAMGWYRQAPGKERELVAAISSRGGITYYADSVKGRFTISRDNAKNTVYLQMNSLKPEYTAVYYSNALPRCTYRQGLGVRLYYWGQGTQVTVSS	high polyreactivity
QVQLVESGGGLVQAGGSLRLSCAASGRTFERNAMGWYRQAPGKERQLVAAITSGDGTSYADSVKGRFTISRDNAKNTVYLQMNSLKPEDTAVYYCAAPFVGSVVIRRWDEYDYWGQGTQVTVSS	low polyreactivity
QVQLVESGGGLVKAGGSLRLSCAASGLISWLYVMGWYRQAPGKERELVAAIRYSGGRTYYADSVKGRFTISRDNAKNTVYLQMHSMKPEDTAVYYCNALPWALYDSTSIYYYWGQGTQVTVSS	low polyreactivity
QVQLVESGGGLVQAGGSLRLSCAASGRTFTGNVMGWYRQAPGKERELVAAISRRGGITYYADSVKGRFTISRDNAKNTVYLQMNSLKPEDTAVYYCDAYSWRRQGDHYDYWGQGTQVTVSS	high polyreactivity
QVQLVESGGGLVQAGGSLRLSCAASGLILSSNAMGWYRQAPGKERELVAAITWDGDRTYADSVKGRFTISRDNAKNTVYLQMNSLKPEDTAVYYCAAPSYVSYDSEFGYWGQGTQVTVSS	low polyreactivity
QVQLVESGGGLVQAGGSLRLSCAASGSIFAANAMGWYRQAPGKERELVAAITSGGSTDYADSVKGRFTISRDNAKNTVYLEMNSLKPEDTAVYYCAKGYVPYAIFDYWGQGTQVTVSS	low polyreactivity
QVQLVESGGGLVQAGGSLRLSCAASGLIFVWYAMGWYRQAPGKERELVAAISWRGGTRYYADSVKGRFTISRDNAKNTVYLQMTSLKPEDTAVYYCARDPDTYFFPPNGYYSSGFDSWGQGTQVTVSS	low polyreactivity
QVQLVESGGGLVQAGGSLRLSCDASGRIFLTNAMAWYRQAPGKERELVAAITSGVSTYYADSVKGRFTISRDNAKNTVYLQMNSLKPEDTAVYYCNADTDRYWPYEYDYWGQGTQVTVSS	low polyreactivity
QVQLVESGGGLVQAGGSLRLSCAASGITFGIYVMGWYRPAPGKEWELVATISRSDDNTYYADSVKGRFTISRDNAKNTVYLQMNSLKPEDTAVYYCAAYWYDLYWDYYTFDYWGQGTQVTVSS	low polyreactivity
QVQLVESGGGLVQEGGSLRLSCAASGRIFNGYAMGCYRQAPGKERELVAAINSSGGSTYYADSVKGRFTISRDNAKNTVYLQMNSLKPEDTAVYYCARVSYHYRTYDYWGQGTQVTVSS	high polyreactivity
